How the values were obtained:
GSK3β [1] = biological target: GSK3β (UniProt Q9WV60); experiment: microtubule pelleting assay, western blot quantification; conditions: re-polymerization of hippocampal tubulin from adult mice; n = 3 mice per genotype; parent: est. 0.40; read off a plot
GSK3α = GSK3α (UniProt Q2NL51); experiment: as above; conditions: re-polymerization of hippocampal tubulin from adult mice; n = 3 mice per genotype; parent: est. 0.30; read off a plot
GSK3β [2] = biological target: GSK3β (UniProt Q9WV60); experiment: soluble-tubulin extraction assay, western blot quantification; conditions: DIV15 neurons; n = 4 independent cultures per genotype; parent: est. 1.5; read off a plot
[3] = biological target: microtubules of Tuba4aΔpolyGlu (p/p) mice, containing mutant Tuba4a without C-terminal polyglutamylation (mouse (endogenous in hippocampal neurons and hippocampus)) (UniProt P68368); experiment: soluble-tubulin extraction assay (TX-100 extraction); DIV15 hippocampal neurons extracted 90 s at 37 °C in MT-extraction buffer (80 mM PIPES pH 6.9, 0.3% Triton X-100, 150 mM NaCl); soluble and in-soluble (polymerized microtubules with associated MAPs) fractions compared by western blot
Sequence of UniProt P68368 (P68368 whole entry, looked up, stated change not applied): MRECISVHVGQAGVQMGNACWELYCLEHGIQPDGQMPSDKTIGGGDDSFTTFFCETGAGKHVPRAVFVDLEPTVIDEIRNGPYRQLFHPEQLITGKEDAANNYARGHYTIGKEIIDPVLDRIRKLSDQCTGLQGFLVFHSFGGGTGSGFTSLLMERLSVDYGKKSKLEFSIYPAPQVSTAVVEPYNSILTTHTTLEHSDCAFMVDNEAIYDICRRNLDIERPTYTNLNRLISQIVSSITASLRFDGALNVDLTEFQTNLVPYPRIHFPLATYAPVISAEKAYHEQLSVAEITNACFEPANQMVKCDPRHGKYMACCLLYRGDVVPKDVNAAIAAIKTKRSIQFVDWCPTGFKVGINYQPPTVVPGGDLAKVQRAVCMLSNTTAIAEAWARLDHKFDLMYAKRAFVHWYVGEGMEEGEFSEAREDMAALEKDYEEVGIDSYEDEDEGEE

Sequence of UniProt Q9WV60 (Q9WV60 whole entry, looked up): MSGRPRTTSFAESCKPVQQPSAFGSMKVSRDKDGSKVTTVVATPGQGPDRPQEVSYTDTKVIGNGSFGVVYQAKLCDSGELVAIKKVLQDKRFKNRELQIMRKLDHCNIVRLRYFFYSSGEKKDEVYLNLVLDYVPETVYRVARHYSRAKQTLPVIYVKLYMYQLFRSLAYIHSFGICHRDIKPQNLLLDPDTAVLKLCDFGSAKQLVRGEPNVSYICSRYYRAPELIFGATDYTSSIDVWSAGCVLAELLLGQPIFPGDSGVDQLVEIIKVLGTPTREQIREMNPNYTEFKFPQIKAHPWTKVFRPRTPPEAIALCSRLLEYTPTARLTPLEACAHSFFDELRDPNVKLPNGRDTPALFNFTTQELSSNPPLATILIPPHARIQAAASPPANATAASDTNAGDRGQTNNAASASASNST
Sequence of UniProt Q2NL51 (Q2NL51 whole entry, looked up): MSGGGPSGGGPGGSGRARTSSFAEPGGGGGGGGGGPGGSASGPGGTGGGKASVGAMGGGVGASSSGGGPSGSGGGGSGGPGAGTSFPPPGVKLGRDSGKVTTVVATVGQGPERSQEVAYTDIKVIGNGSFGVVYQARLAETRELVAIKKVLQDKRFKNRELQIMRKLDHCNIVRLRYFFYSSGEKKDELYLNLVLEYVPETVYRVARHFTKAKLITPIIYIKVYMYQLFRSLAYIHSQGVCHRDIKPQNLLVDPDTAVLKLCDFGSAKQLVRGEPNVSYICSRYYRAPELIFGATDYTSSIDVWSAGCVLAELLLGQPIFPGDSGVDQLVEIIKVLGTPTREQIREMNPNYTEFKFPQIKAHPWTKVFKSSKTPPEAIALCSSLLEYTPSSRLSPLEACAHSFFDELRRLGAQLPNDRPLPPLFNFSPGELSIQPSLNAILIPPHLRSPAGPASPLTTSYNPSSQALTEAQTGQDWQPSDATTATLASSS

| other: pellet / supernatant ratio (GSK3β [1]) | other: pellet / supernatant ratio (GSK3α) | other: in-soluble / soluble ratio (GSK3β [2]) | reduction of co-occurrence with microtubules in the in-soluble fraction against wild type (+/+) [3] | Substance |
| --- | --- | --- | --- | --- |
| 0.15 | 0.15 | 0.73 |  | microtubules of wild-type (+/+) mice, containing polyglutamylated Tuba4a (from UniProt P68368;Q9ERD7) Tuba4aΔpolyGlu (p/p) |
|  |  |  | > 50% | MAP2a/b (from UniProt P20357 1-1828) (natural protein) |
|  |  |  | > 50% | Tau (mouse, endogenous) (from UniProt P10637 1-733) (natural protein) |

From article PMC9300677
